The values that follow come from patent publication US20190336574A1 (TRUSTEES OF PRINCETON UNIVERSITY, published 2019).

To fix the notation:
B1: Myc-MTDH W404D, full-length human (other)
chain: MAARSWQDELAQQAEEGSARLREMLSVGLGFLRTELGLDLGLEPKRYPGWVILVGTGALGLLLLFLLGYGWAAACAGSRKKRRSPPRKREEAAAVPAAAPDDLALLKNLRSEEQKKKNRKKLSEKPKPNGRTVEVAEGEAVRTPQSVTAKQPPEIDKKNEKSKKNKKKSKSDAKAVQNSSRHDGKEVDEGAWETKISHREKRQQRKRDKVLTDSGSLDSTIPGIENTITVTTEQLTTASFPVGSKKNKGDSHLNVQVSNFKSGKGDSTLQVSSGLNENLTVNGGGWNEKSVKLSSQISAGEEKWNSVSPASAGKRKAEPSAWSQDTGDANTNGKDWGRSWSDRSIFSGIGSTAEPVSQSTTSDYQWDVSRNQPYIDDEWSGLNGLSSADPNSDWNAPAEEWGNDVDEERASLLKSQEPIPDDQKVSDDDKEKGEGALPTGKSKKKKKKKKKQGEDNSTAQDTEELEKEIREDLPVNTSKTRPKQEKAFSLKTISTSDPAEVLVKNSQPIKTLPPATSTEPSVILSKSDSDKSSSQVPPILQETDKSKSNTKQNSVPPSQTKSETSWESPKQIKKKKKARRET
notes: Full-length, Myc-tagged; also called SPM31
B2: Myc-MTDH D389R, full-length human (other)
chain: MAARSWQDELAQQAEEGSARLREMLSVGLGFLRTELGLDLGLEPKRYPGWVILVGTGALGLLLLFLLGYGWAAACAGSRKKRRSPPRKREEAAAVPAAAPDDLALLKNLRSEEQKKKNRKKLSEKPKPNGRTVEVAEGEAVRTPQSVTAKQPPEIDKKNEKSKKNKKKSKSDAKAVQNSSRHDGKEVDEGAWETKISHREKRQQRKRDKVLTDSGSLDSTIPGIENTITVTTEQLTTASFPVGSKKNKGDSHLNVQVSNFKSGKGDSTLQVSSGLNENLTVNGGGWNEKSVKLSSQISAGEEKWNSVSPASAGKRKAEPSAWSQDTGDANTNGKDWGRSWSDRSIFSGIGSTAEPVSQSTTSDYQWDVSRNQPYIDDEWSGLNGLSSARPNSDWNAPAEEWGNWVDEERASLLKSQEPIPDDQKVSDDDKEKGEGALPTGKSKKKKKKKKKQGEDNSTAQDTEELEKEIREDLPVNTSKTRPKQEKAFSLKTISTSDPAEVLVKNSQPIKTLPPATSTEPSVILSKSDSDKSSSQVPPILQETDKSKSNTKQNSVPPSQTKSETSWESPKQIKKKKKARRET
notes: Full-length, Myc-tagged; also called SPM11
B3: Myc-MTDH W394D, full-length human (other)
chain: MAARSWQDELAQQAEEGSARLREMLSVGLGFLRTELGLDLGLEPKRYPGWVILVGTGALGLLLLFLLGYGWAAACAGSRKKRRSPPRKREEAAAVPAAAPDDLALLKNLRSEEQKKKNRKKLSEKPKPNGRTVEVAEGEAVRTPQSVTAKQPPEIDKKNEKSKKNKKKSKSDAKAVQNSSRHDGKEVDEGAWETKISHREKRQQRKRDKVLTDSGSLDSTIPGIENTITVTTEQLTTASFPVGSKKNKGDSHLNVQVSNFKSGKGDSTLQVSSGLNENLTVNGGGWNEKSVKLSSQISAGEEKWNSVSPASAGKRKAEPSAWSQDTGDANTNGKDWGRSWSDRSIFSGIGSTAEPVSQSTTSDYQWDVSRNQPYIDDEWSGLNGLSSADPNSDDNAPAEEWGNWVDEERASLLKSQEPIPDDQKVSDDDKEKGEGALPTGKSKKKKKKKKKQGEDNSTAQDTEELEKEIREDLPVNTSKTRPKQEKAFSLKTISTSDPAEVLVKNSQPIKTLPPATSTEPSVILSKSDSDKSSSQVPPILQETDKSKSNTKQNSVPPSQTKSETSWESPKQIKKKKKARRET
notes: Full-length, Myc-tagged; also called SPM13
B4: Myc-MTDH W394A, full-length human (other)
chain: MAARSWQDELAQQAEEGSARLREMLSVGLGFLRTELGLDLGLEPKRYPGWVILVGTGALGLLLLFLLGYGWAAACAGSRKKRRSPPRKREEAAAVPAAAPDDLALLKNLRSEEQKKKNRKKLSEKPKPNGRTVEVAEGEAVRTPQSVTAKQPPEIDKKNEKSKKNKKKSKSDAKAVQNSSRHDGKEVDEGAWETKISHREKRQQRKRDKVLTDSGSLDSTIPGIENTITVTTEQLTTASFPVGSKKNKGDSHLNVQVSNFKSGKGDSTLQVSSGLNENLTVNGGGWNEKSVKLSSQISAGEEKWNSVSPASAGKRKAEPSAWSQDTGDANTNGKDWGRSWSDRSIFSGIGSTAEPVSQSTTSDYQWDVSRNQPYIDDEWSGLNGLSSADPNSDANAPAEEWGNWVDEERASLLKSQEPIPDDQKVSDDDKEKGEGALPTGKSKKKKKKKKKQGEDNSTAQDTEELEKEIREDLPVNTSKTRPKQEKAFSLKTISTSDPAEVLVKNSQPIKTLPPATSTEPSVILSKSDSDKSSSQVPPILQETDKSKSNTKQNSVPPSQTKSETSWESPKQIKKKKKARRET
notes: Full-length, Myc-tagged
B5: Myc-MTDH W401A, full-length human (other)
chain: MAARSWQDELAQQAEEGSARLREMLSVGLGFLRTELGLDLGLEPKRYPGWVILVGTGALGLLLLFLLGYGWAAACAGSRKKRRSPPRKREEAAAVPAAAPDDLALLKNLRSEEQKKKNRKKLSEKPKPNGRTVEVAEGEAVRTPQSVTAKQPPEIDKKNEKSKKNKKKSKSDAKAVQNSSRHDGKEVDEGAWETKISHREKRQQRKRDKVLTDSGSLDSTIPGIENTITVTTEQLTTASFPVGSKKNKGDSHLNVQVSNFKSGKGDSTLQVSSGLNENLTVNGGGWNEKSVKLSSQISAGEEKWNSVSPASAGKRKAEPSAWSQDTGDANTNGKDWGRSWSDRSIFSGIGSTAEPVSQSTTSDYQWDVSRNQPYIDDEWSGLNGLSSADPNSDWNAPAEEAGNWVDEERASLLKSQEPIPDDQKVSDDDKEKGEGALPTGKSKKKKKKKKKQGEDNSTAQDTEELEKEIREDLPVNTSKTRPKQEKAFSLKTISTSDPAEVLVKNSQPIKTLPPATSTEPSVILSKSDSDKSSSQVPPILQETDKSKSNTKQNSVPPSQTKSETSWESPKQIKKKKKARRET
notes: Full-length, Myc-tagged
B6: GST-MTDH (386-407), wild type (other)
chain: SSADPNSDWNAPAEEWGNWVDE
modifications: not fully specified (N-terminus)
notes: not shown: N-terminal GST tag with TEV site, pQlink vector

Where no end group is shown, it is not given here.

One assay concerns the target T1, HA-SND1, full-length human, wild type (human, UniProt Q7KZF4 1-910).
T1 construct: Full-length, HA-tagged; Expressed in HEK293T cells, tested in lysate; also called HA-tagged SND1; WT HA-SND1
T1 sequence: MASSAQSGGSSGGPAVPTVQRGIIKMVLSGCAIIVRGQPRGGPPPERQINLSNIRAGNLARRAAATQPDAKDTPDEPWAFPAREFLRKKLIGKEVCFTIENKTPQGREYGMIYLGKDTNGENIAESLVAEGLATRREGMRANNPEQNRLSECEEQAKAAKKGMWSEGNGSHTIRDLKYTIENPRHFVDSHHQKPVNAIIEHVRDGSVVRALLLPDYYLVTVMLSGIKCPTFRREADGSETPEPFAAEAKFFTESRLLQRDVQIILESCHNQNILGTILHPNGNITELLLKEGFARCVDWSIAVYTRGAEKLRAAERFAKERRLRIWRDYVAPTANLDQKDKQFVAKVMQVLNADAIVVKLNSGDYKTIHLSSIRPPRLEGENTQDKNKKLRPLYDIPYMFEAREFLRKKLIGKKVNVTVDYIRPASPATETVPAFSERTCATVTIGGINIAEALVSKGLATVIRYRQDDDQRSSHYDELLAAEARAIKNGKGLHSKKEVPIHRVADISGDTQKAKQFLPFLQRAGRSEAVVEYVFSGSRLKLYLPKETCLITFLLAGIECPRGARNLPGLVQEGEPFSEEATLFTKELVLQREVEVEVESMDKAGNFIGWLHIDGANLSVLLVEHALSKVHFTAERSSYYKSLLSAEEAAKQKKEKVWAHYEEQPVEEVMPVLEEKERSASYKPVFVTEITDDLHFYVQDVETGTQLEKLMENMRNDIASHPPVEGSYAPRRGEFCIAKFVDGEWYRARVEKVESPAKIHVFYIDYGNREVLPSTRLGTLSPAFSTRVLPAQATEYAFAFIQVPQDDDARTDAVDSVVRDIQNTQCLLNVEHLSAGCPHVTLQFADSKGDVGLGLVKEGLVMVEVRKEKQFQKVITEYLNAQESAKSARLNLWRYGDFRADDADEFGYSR
Briefly: co-IP (anti-Myc) from HEK293T lysates, western blot.
Regarding B1, the binding result was “binds”.

Another assay concerns the target T1, HA-SND1, full-length human, wild type. Briefly: co-IP from HEK293T lysates (anti-HA per text, anti-Myc per legend), western blot. As to the method: Immunoprecipitation and western blot: For in vivo immunoprecipitation (IP) experiments, cultured cells were washed in cold PBS and lysed in lysis buffer (20 mM Tris pH 7.4, 0.15 M NaCl, 1 mM EDTA, 1 mM EGTA, 1% Tx-100, 0.0025 M Na2P2O7, 1 mM β-glycerolphosphate, 1 mM Na3VO4, and 1 mM NaF) with an EDTA-free protease inhibitor mixture (Roche Applied Science) and PMSF. Cell lysates were then incubated on ice for 10 min, centrifuged, and precleared by incubating with protein A/G beads (Santa Cruz Biotechnology) for 1 h at 4° C. For IP bead preparation, 30 μl of protein A/G beads were incubated with 5 μg of antibodies for 2 h at 4° C. IPs were carried out for overnight at 4° C., and beads were centrifuged, washed and subsequently boiled for 5 min in SDS protein loading buffer to elute bound protein. IP lysates were subjected to western blotting with indicated antibodies.
It was further examined how the MTDH and SND1 mutations identified at this interface affected the interaction of full-length proteins in mammalian cells. Full-length HA-tagged SND1 was co-expressed with full-length Myc-tagged wild-type (WT) or mutant MTDH in HEK293T cells and cell lysates were subjected to anti-HA immunoprecipitation for SND1 pull down. Consistent with in vitro observations (FIG. 22A), WT MTDH, but not mutants W394A, W394D, or W401A, was pulled down along with HA-SND1 (FIG. 22C, in red). […] Likewise, the SND1 mutations that affected MTDH-binding in vitro also affected the binding of full-length proteins in vivo to similar levels.
With B2, the binding result is reported as “binds”.

In the case of B3, the binding result is on record as “no binding”.

B4: the binding result is reported as “no binding”.

With B5, the binding result was “no binding”.

The next assay addresses T2, His-SND1 (16-339), SN1/2 domains, wild type (human, UniProt Q7KZF4 16-339).
T2 construct: also called His6-SND1 harboring the SN1/2 domains; not shown: N-terminal His tag (His6, His8 or His) with TEV site, pQlink vector
T2 sequence: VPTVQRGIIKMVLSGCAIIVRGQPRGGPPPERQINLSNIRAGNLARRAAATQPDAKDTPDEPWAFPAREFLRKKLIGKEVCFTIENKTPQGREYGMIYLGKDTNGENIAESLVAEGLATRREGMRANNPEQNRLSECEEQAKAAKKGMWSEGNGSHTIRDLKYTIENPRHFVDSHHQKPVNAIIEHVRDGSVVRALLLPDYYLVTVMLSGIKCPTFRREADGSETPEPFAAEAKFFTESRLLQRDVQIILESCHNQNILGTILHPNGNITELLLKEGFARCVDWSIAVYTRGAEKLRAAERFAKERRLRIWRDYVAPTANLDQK
The assay is described as follows: GST titration pull-down: GST-MTDH (386-407) on glutathione resin, SND1 (SN1/2) at 10, 3, 1, 0.5, 0.25, 0.12 (the sheet prints mM, paragraph 254 says µM), SDS-PAGE, Coomassie blue.
For the molecule B6, the “Estimated Binding Affinity” value is roughly 1.2 µM.

As for SSADPNSDWNDPAEEWGNWVDE (other, member of the group m64) [A396D], the “Estimated Binding Affinity” value is roughly 1.5 µM.

As for SSADPNSDWKAPAEEWGNWVDE (other, member of the group m64) [N395K], the “Estimated Binding Affinity” value is roughly 0.8 µM.

For the molecule SSADPNSDWNAPAEDWGLWVDE (other, member of the group m64) [E400D/N403L], the “Estimated Binding Affinity” value was roughly 0.9 µM.
